The values below come from patent US20200317768A1 (published 2020).

The Kd is the equilibrium constant for the complex coming apart.

The test addresses T1, cynomolgus monkey FcγRIIa2 extracellular domain, C-terminal His-tag (cynomolgus monkey).
T1 construct: also called cyno FcγRIIa2; cynoFcgRIIa2; not shown: His-tag added to C-terminus
T1 chain: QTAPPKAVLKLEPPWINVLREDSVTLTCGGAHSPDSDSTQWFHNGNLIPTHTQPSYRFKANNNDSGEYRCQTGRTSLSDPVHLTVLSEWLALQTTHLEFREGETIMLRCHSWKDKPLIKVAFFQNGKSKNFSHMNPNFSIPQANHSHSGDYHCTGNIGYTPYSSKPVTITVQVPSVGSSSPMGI
The experiment in a line: SPR (Biacore), antibody captured, FcgR analyte, 25 C. (In SPR one partner is held on a chip, and binding of the other changes the refractive index at the surface.)

B1: M103205H795-MY278/M103202L889-SK1 (antibody, human IgG1, kappa)
heavy: QVTLKESGPVLVKPTETLTLTCTVSGIDLSHDDISWVRQAPGKGLEWVGIISYAGSTYYASWAKGRLTISKDTSKNQVVLTMTNMDPVDTATYYCARGVPAYSHGGDLWGQGTLVTVSSASTKGPSVFPLAPSSKSTSGGTAALGCLVKDYFPEPVTVSWNSGALTSGVHTFPAVLQSSGLYSLSSVVTVPSSSLGTQTYICNVNHKPSNTKVDKKVEPKSCDKTHTCPPCPAPELLMGPSVFLFPPKPKDTLMISRTPEVTCVVVDVSDEDPEVKFNWYVDGVEVHNAKTKPREELYNSTYRVVSVLTVLHQDWLNGKEYKCKVSNKALPKPIEKTISKAKGQPREPQVYTLPPSREEMTKNQVSLTCLVKGFYPSDIAVEWESNGQPENNYKTTPPVLDSDGSFFLYSKLTVDKSRWQQGNVFSCSVMHEALHNHYTQKSLSLSP
light: DIVMTQSPATLSLSPGERATLSCTSSQSVYHANWLSWFQQKPGQPPKLLIYWASTLAYGVPSRFSGSGSGTDFTLTISSLQPEDAATYYCAGGYGGGRYAFGQGTKVEIKRTVAAPSVFIFPPSDEQLKSGTASVVCLLNNFYPREAKVQWKVDNALQSGNSQESVTEQDSKDSTYSLSSTLTLSKADYEKHKVYACEVTHQGLSSPVTKSFNRGEC
As to B1, binding was put at a Kd of 3600 nM.

B2: M103205H795-MY308/M103202L889-SK1 (antibody, human IgG1, kappa)
heavy: QVTLKESGPVLVKPTETLTLTCTVSGIDLSHDDISWVRQAPGKGLEWVGIISYAGSTYYASWAKGRLTISKDTSKNQVVLTMTNMDPVDTATYYCARGVPAYSHGGDLWGQGTLVTVSSASTKGPSVFPLAPSSKSTSGGTAALGCLVKDYFPEPVTVSWNSGALTSGVHTFPAVLQSSGLYSLSSVVTVPSSSLGTQTYICNVNHKPSNTKVDKKVEPKSCDKTHTCPPCPAPELLTGPSVFLFPPKPKDTLMISRTPEVTCVVVDVSEEDPEVKFNWYVDGVEVHNAKTKPREEQYNSTYRVVSVLTVLHQDWLNGKEYKCKVSNKALPKPIEKTISKAKGQPREPQVYTLPPSREEMTKNQVSLTCLVKGFYPSDIAVEWESNGQPENNYKTTPPVLDSDGSFFLYSKLTVDKSRWQQGNVFSCSVMHEALHNHYTQKSLSLSP
light: DIVMTQSPATLSLSPGERATLSCTSSQSVYHANWLSWFQQKPGQPPKLLIYWASTLAYGVPSRFSGSGSGTDFTLTISSLQPEDAATYYCAGGYGGGRYAFGQGTKVEIKRTVAAPSVFIFPPSDEQLKSGTASVVCLLNNFYPREAKVQWKVDNALQSGNSQESVTEQDSKDSTYSLSSTLTLSKADYEKHKVYACEVTHQGLSSPVTKSFNRGEC
B2 yielded a Kd of 4600 nM.

B3: M103205H795-MY292/M103202L889-SK1 (antibody, human IgG1, kappa)
heavy: QVTLKESGPVLVKPTETLTLTCTVSGIDLSHDDISWVRQAPGKGLEWVGIISYAGSTYYASWAKGRLTISKDTSKNQVVLTMTNMDPVDTATYYCARGVPAYSHGGDLWGQGTLVTVSSASTKGPSVFPLAPSSKSTSGGTAALGCLVKDYFPEPVTVSWNSGALTSGVHTFPAVLQSSGLYSLSSVVTVPSSSLGTQTYICNVNHKPSNTKVDKKVEPKSCDKTHTCPPCPAPELLGYPSVFLFPPKPKDTLMISRTPEVTCVVVDVSDEDPEVKFNWYVDGVEVHNAKTKPREELYNSTYRVVSVLTVLHQDWLNGKEYKCKVSNKALPKPIEKTISKAKGQPREPQVYTLPPSREEMTKNQVSLTCLVKGFYPSDIAVEWESNGQPENNYKTTPMVLDSDGSFFLYSKLTVDKSRWQQGNVFSCSVMHEALHNHYTQKSLSLSP
light: DIVMTQSPATLSLSPGERATLSCTSSQSVYHANWLSWFQQKPGQPPKLLIYWASTLAYGVPSRFSGSGSGTDFTLTISSLQPEDAATYYCAGGYGGGRYAFGQGTKVEIKRTVAAPSVFIFPPSDEQLKSGTASVVCLLNNFYPREAKVQWKVDNALQSGNSQESVTEQDSKDSTYSLSSTLTLSKADYEKHKVYACEVTHQGLSSPVTKSFNRGEC
Molecule B3 showed a Kd of 2500 nM.

B4: M103205H795-MY309/M103202L889-SK1 (antibody, human IgG1, kappa)
heavy: QVTLKESGPVLVKPTETLTLTCTVSGIDLSHDDISWVRQAPGKGLEWVGIISYAGSTYYASWAKGRLTISKDTSKNQVVLTMTNMDPVDTATYYCARGVPAYSHGGDLWGQGTLVTVSSASTKGPSVFPLAPSSKSTSGGTAALGCLVKDYFPEPVTVSWNSGALTSGVHTFPAVLQSSGLYSLSSVVTVPSSSLGTQTYICNVNHKPSNTKVDKKVEPKSCDKTHTCPPCPAPELLTGPSVFLFPPKPKDTLMISRTPEVTCVVVDVSEEDPEVKFNWYVDGVEVHNAKTKPREEQYNSTYRVVSVLTVLHQDWLNGKEYKCKVSNKALPKPIEKTISKAKGQPREPQVYTLPPSREEMTKNQVSLTCLVKGFYPSDIAVEWESNGQPENNYKTTPMVLDSDGSFFLYSKLTVDKSRWQQGNVFSCSVMHEALHNHYTQKSLSLSP
light: DIVMTQSPATLSLSPGERATLSCTSSQSVYHANWLSWFQQKPGQPPKLLIYWASTLAYGVPSRFSGSGSGTDFTLTISSLQPEDAATYYCAGGYGGGRYAFGQGTKVEIKRTVAAPSVFIFPPSDEQLKSGTASVVCLLNNFYPREAKVQWKVDNALQSGNSQESVTEQDSKDSTYSLSSTLTLSKADYEKHKVYACEVTHQGLSSPVTKSFNRGEC
B4 registered a Kd of 2500 nM.

B5: M103205H795-MY281/M103202L889-SK1 (antibody, human IgG1, kappa)
heavy: QVTLKESGPVLVKPTETLTLTCTVSGIDLSHDDISWVRQAPGKGLEWVGIISYAGSTYYASWAKGRLTISKDTSKNQVVLTMTNMDPVDTATYYCARGVPAYSHGGDLWGQGTLVTVSSASTKGPSVFPLAPSSKSTSGGTAALGCLVKDYFPEPVTVSWNSGALTSGVHTFPAVLQSSGLYSLSSVVTVPSSSLGTQTYICNVNHKPSNTKVDKKVEPKSCDKTHTCPPCPAPELLQGPSVFLFPPKPKDTLMISRTPEVTCVVVDVSDEDPEVKFNWYVDGVEVHNAKTKPREELYNSTYRVVSVLTVLHQDWLNGKEYKCKVSNKALPKPIEKTISKAKGQPREPQVYTLPPSREEMTKNQVSLTCLVKGFYPSDIAVEWESNGQPENNYKTTPPVLDSDGSFFLYSKLTVDKSRWQQGNVFSCSVMHEALHNHYTQKSLSLSP
light: DIVMTQSPATLSLSPGERATLSCTSSQSVYHANWLSWFQQKPGQPPKLLIYWASTLAYGVPSRFSGSGSGTDFTLTISSLQPEDAATYYCAGGYGGGRYAFGQGTKVEIKRTVAAPSVFIFPPSDEQLKSGTASVVCLLNNFYPREAKVQWKVDNALQSGNSQESVTEQDSKDSTYSLSSTLTLSKADYEKHKVYACEVTHQGLSSPVTKSFNRGEC
Take B5: binding was put at a Kd of 2500 nM.

B6: M103205H795-MY280/M103202L889-SK1 (antibody, human IgG1, kappa)
heavy: QVTLKESGPVLVKPTETLTLTCTVSGIDLSHDDISWVRQAPGKGLEWVGIISYAGSTYYASWAKGRLTISKDTSKNQVVLTMTNMDPVDTATYYCARGVPAYSHGGDLWGQGTLVTVSSASTKGPSVFPLAPSSKSTSGGTAALGCLVKDYFPEPVTVSWNSGALTSGVHTFPAVLQSSGLYSLSSVVTVPSSSLGTQTYICNVNHKPSNTKVDKKVEPKSCDKTHTCPPCPAPELLVGPSVFLFPPKPKDTLMISRTPEVTCVVVDVSDEDPEVKFNWYVDGVEVHNAKTKPREELYNSTYRVVSVLTVLHQDWLNGKEYKCKVSNKALPKPIEKTISKAKGQPREPQVYTLPPSREEMTKNQVSLTCLVKGFYPSDIAVEWESNGQPENNYKTTPPVLDSDGSFFLYSKLTVDKSRWQQGNVFSCSVMHEALHNHYTQKSLSLSP
light: DIVMTQSPATLSLSPGERATLSCTSSQSVYHANWLSWFQQKPGQPPKLLIYWASTLAYGVPSRFSGSGSGTDFTLTISSLQPEDAATYYCAGGYGGGRYAFGQGTKVEIKRTVAAPSVFIFPPSDEQLKSGTASVVCLLNNFYPREAKVQWKVDNALQSGNSQESVTEQDSKDSTYSLSSTLTLSKADYEKHKVYACEVTHQGLSSPVTKSFNRGEC
The molecule B6 showed a Kd of 1200 nM.

B7: M103205H795-MY279/M103202L889-SK1 (antibody, human IgG1, kappa)
heavy: QVTLKESGPVLVKPTETLTLTCTVSGIDLSHDDISWVRQAPGKGLEWVGIISYAGSTYYASWAKGRLTISKDTSKNQVVLTMTNMDPVDTATYYCARGVPAYSHGGDLWGQGTLVTVSSASTKGPSVFPLAPSSKSTSGGTAALGCLVKDYFPEPVTVSWNSGALTSGVHTFPAVLQSSGLYSLSSVVTVPSSSLGTQTYICNVNHKPSNTKVDKKVEPKSCDKTHTCPPCPAPELLHGPSVFLFPPKPKDTLMISRTPEVTCVVVDVSDEDPEVKFNWYVDGVEVHNAKTKPREELYNSTYRVVSVLTVLHQDWLNGKEYKCKVSNKALPKPIEKTISKAKGQPREPQVYTLPPSREEMTKNQVSLTCLVKGFYPSDIAVEWESNGQPENNYKTTPPVLDSDGSFFLYSKLTVDKSRWQQGNVFSCSVMHEALHNHYTQKSLSLSP
light: DIVMTQSPATLSLSPGERATLSCTSSQSVYHANWLSWFQQKPGQPPKLLIYWASTLAYGVPSRFSGSGSGTDFTLTISSLQPEDAATYYCAGGYGGGRYAFGQGTKVEIKRTVAAPSVFIFPPSDEQLKSGTASVVCLLNNFYPREAKVQWKVDNALQSGNSQESVTEQDSKDSTYSLSSTLTLSKADYEKHKVYACEVTHQGLSSPVTKSFNRGEC
B7: binding was put at a Kd of 3300 nM.

B8: M103205H795-MY293/M103202L889-SK1 (antibody, human IgG1, kappa)
heavy: QVTLKESGPVLVKPTETLTLTCTVSGIDLSHDDISWVRQAPGKGLEWVGIISYAGSTYYASWAKGRLTISKDTSKNQVVLTMTNMDPVDTATYYCARGVPAYSHGGDLWGQGTLVTVSSASTKGPSVFPLAPSSKSTSGGTAALGCLVKDYFPEPVTVSWNSGALTSGVHTFPAVLQSSGLYSLSSVVTVPSSSLGTQTYICNVNHKPSNTKVDKKVEPKSCDKTHTCPPCPAPELLGYPSVFLFPPKPKDTLMISRTPEVTCVVVDVSEEDPEVKFNWYVDGVEVHNAKTKPREELYNSTYRVVSVLTVLHQDWLNGKEYKCKVSNKALPKPIEKTISKAKGQPREPQVYTLPPSREEMTKNQVSLTCLVKGFYPSDIAVEWESNGQPENNYKTTPKVLDSDGSFFLYSKLTVDKSRWQQGNVFSCSVMHEALHNHYTQKSLSLSP
light: DIVMTQSPATLSLSPGERATLSCTSSQSVYHANWLSWFQQKPGQPPKLLIYWASTLAYGVPSRFSGSGSGTDFTLTISSLQPEDAATYYCAGGYGGGRYAFGQGTKVEIKRTVAAPSVFIFPPSDEQLKSGTASVVCLLNNFYPREAKVQWKVDNALQSGNSQESVTEQDSKDSTYSLSSTLTLSKADYEKHKVYACEVTHQGLSSPVTKSFNRGEC
In turn, B8 registered a Kd of 3300 nM.
